B1: ASCL4 (protein, UniProt Q6XD76 1-172, looked up)
Achaete-scute homolog 4: METRKPAERLALPYSLRTAPLGVPGTLPGLPRRDPLRVALRLDAACWEWARSGCARGWQYLPVPLDSAFEPAFLRKRNERERQRVRCVNEGYARLRDHLPRELADKRLSKVETLRAAIDYIKHLQELLERQAWGLEGAAGAVPQRRAECNSDGESKASSAPSPSSEPEEGGS
B2: MESP1 (protein, UniProt Q9BRJ9 1-268, looked up)
Mesoderm posterior protein 1: MAQPLCPPLSESWMLSAAWGPTRRPPPSDKDCGRSLVSSPDSWGSTPADSPVASPARPGTLRDPRAPSVGRRGARSSRLGSGQRQSASEREKLRMRTLARALHELRRFLPPSVAPAGQSLTKIETLRLAIRYIGHLSAVLGLSEESLQRRCRQRGDAGSPRGCPLCPDDCPAQMQTRTQAEGQGQGRGLGLVSAVRAGASWGSPPACPGARAAPEPRDPPALFAEAACPEGQAMEPSPPSPLLPGDVLALLETWMPLSPLEWLPEEPK
B3: MEIS3 (protein, UniProt Q99687 1-375, looked up)
Homeobox protein Meis3: MARRYDELPHYPGIVDGPAALASFPETVPAVPGPYGPHRPPQPLPPGLDSDGLKREKDEIYGHPLFPLLALVFEKCELATCSPRDGAGAGLGTPPGGDVCSSDSFNEDIAAFAKQVRSERPLFSSNPELDNLMIQAIQVLRFHLLELEKVHDLCDNFCHRYITCLKGKMPIDLVIEDRDGGCREDFEDYPASCPSLPDQNNMWIRDHEDSGSVHLGTPGPSSGGLASQSGDNSSDQGDGLDTSVASPSSGGEDEDLDQERRRNKKRGIFPKVATNIMRAWLFQHLSHPYPSEEQKKQLAQDTGLTILQVNNWFINARRRIVQPMIDQSNRTGQGAAFSPEGQPIGGYTETQPHVAVRPPGSVGMSLNLEGEWHYL
B4: MLLT10 (protein, UniProt P55197 1-1068, looked up)
Protein AF-10: MVSSDRPVSLEDEVSHSMKEMIGGCCVCSDERGWAENPLVYCDGHGCSVAVHQACYGIVQVPTGPWFCRKCESQERAARVRCELCPHKDGALKRTDNGGWAHVVCALYIPEVQFANVSTMEPIVLQSVPHDRYNKTCYICDEQGRESKAATGACMTCNKHGCRQAFHVTCAQFAGLLCEEEGNGADNVQYCGYCKYHFSKLKKSKRGSNRSYDQSLSDSSSHSQDKHHEKEKKKYKEKDKHKQKHKKQPEPSPALVPSLTVTTEKTYTSTSNNSISGSLKRLEDTTARFTNANFQEVSAHTSSGKDVSETRGSEGKGKKSSAHSSGQRGRKPGGGRNPGTTVSAASPFPQGSFSGTPGSVKSSSGSSVQSPQDFLSFTDSDLRNDSYSHSQQSSATKDVHKGESGSQEGGVNSFSTLIGLPSTSAVTSQPKSFENSPGDLGNSSLPTAGYKRAQTSGIEEETVKEKKRKGNKQSKHGPGRPKGNKNQENVSHLSVSSASPTSSVASAAGSITSSSLQKSPTLLRNGSLQSLSVGSSPVGSEISMQYRHDGACPTTTFSELLNAIHNGIYNSNDVAVSFPNVVSGSGSSTPVSSSHLPQQSSGHLQQVGALSPSAVSSAAPAVATTQANTLSGSSLSQAPSHMYGNRSNSSMAALIAQSENNQTDQDLGDNSRNLVGRGSSPRGSLSPRSPVSSLQIRYDQPGNSSLENLPPVAASIEQLLERQWSEGQQFLLEQGTPSDILGMLKSLHQLQVENRRLEEQIKNLTAKKERLQLLNAQLSVPFPTITANPSPSHQIHTFSAQTAPTTDSLNSSKSPHIGNSFLPDNSLPVLNQDLTSSGQSTSSSSALSTPPPAGQSPAQQGSGVSGVQQVNGVTVGALASGMQPVTSTIPAVSAVGGIIGALPGNQLAINGIVGALNGVMQTPVTMSQNPTPLTHTTVPPNATHPMPATLTNSASGLGLLSDQQRQILIHQQQFQQLLNSQQLTPEQHQAFLYQLMQHHHQQHHQPELQQLQIPGPTQIPINNLLAGTQAPPLHTATTNPFLTIHGDNASQKVARLSDKTGPVAQEKS

Tested on: HEK293FT cells transfected with TF library
Test: Screening of TF condensates based on fluorescent puncta
Assay type: cell-based
Details: Figure 1B numerical data; TF library screen, one value per transcriptional factor
How it was run: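 Puncta scoring used automated confocal imaging of fifty random fields per well, after anti-Flag or anti-GAL4 immunofluorescence (Alexa 488) in PFA-fixed cells. HEK293FT cells carried TF library plasmids delivered with PEI (1.6 μg/ml DNA). At 60 h they were switched for 12 h to glucose-containing or glucose-free medium.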

Molecule | Z score of condensed fraction
B1 | 1.17
B2 | -1.02
B3 | 1.7837
B4 | 0.7939
